Reference: PMC10397247

Columns and labels:
4H2837-AA = biological target: T1, 4H2837-AA; test: two-hybrid library CCmax; settings: mean of both orientations;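 note: natural log of median RNA to DNA barcode read ratio; higher means stronger binding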
T1 chain: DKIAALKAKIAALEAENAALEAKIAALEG

4H2505-AA = biological target: T2, 4H2505-AA; test: two-hybrid library CCmax; settings: mean of both orientations;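 note: natural log of median RNA to DNA barcode read ratio; higher means stronger binding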
T2 chain: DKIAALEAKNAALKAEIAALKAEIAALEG

4H3343-AA = biological target: T3, 4H3343-AA; test: two-hybrid library CCmax; settings: mean of both orientations;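 note: natural log of median RNA to DNA barcode read ratio; higher means stronger binding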
T3 chain: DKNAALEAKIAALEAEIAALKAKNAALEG

4H234-AA = biological target: T4, 4H234-AA; test: two-hybrid library CCmax;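 note: natural log of median RNA to DNA barcode read ratio; higher means stronger binding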
T4 chain: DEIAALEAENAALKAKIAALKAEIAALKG

4H717-AA = biological target: T5, 4H717-AA; test: two-hybrid library CCmax; settings: mean of both orientations;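 note: natural log of median RNA to DNA barcode read ratio; higher means stronger binding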
T5 chain: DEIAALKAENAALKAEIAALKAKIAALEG

4H993-AA = biological target: T6, 4H993-AA; test: two-hybrid library CCmax; settings: mean of both orientations;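 note: natural log of median RNA to DNA barcode read ratio; higher means stronger binding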
T6 chain: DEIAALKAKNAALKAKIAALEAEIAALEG

4H335-AA = biological target: T7, 4H335-AA; test: two-hybrid library CCmax
T7 chain: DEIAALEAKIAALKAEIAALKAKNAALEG

4H678-AA = biological target: T8, 4H678-AA; test: two-hybrid library CCmax; settings: mean of both orientations
T8 chain: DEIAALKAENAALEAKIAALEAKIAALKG

4H906-AA = biological target: T9, 4H906-AA; test: two-hybrid library CCmax; settings: mean of both orientations
T9 chain: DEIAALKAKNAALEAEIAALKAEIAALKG

4H3627-AA = biological target: T10, 4H3627-AA; test: two-hybrid library CCmax; settings: mean of both orientations
T10 chain: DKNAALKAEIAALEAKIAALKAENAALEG

4H3606-AA = biological target: T11, 4H3606-AA; test: two-hybrid library CCmax; settings: mean of both orientations
T11 chain: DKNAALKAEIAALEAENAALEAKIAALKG

4H3844-AA = biological target: T12, 4H3844-AA; test: two-hybrid library CCmax; settings: mean of both orientations
T12 chain: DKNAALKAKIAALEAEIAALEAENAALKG

4H429-AA = biological target: T13, 4H429-AA; test: two-hybrid library CCmax; settings: mean of both orientations
T13 chain: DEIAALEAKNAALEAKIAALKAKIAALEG

4H3112-AA = biological target: T14, 4H3112-AA; test: two-hybrid library CCmax; settings: mean of both orientations
T14 chain: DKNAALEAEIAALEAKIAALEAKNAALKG

4H605-AA = biological target: T15, 4H605-AA; test: two-hybrid library CCmax; settings: mean of both orientations
T15 chain: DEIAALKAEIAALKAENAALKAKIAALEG

4H3921-AA = biological target: T16, 4H3921-AA; test: two-hybrid library CCmax; settings: mean of both orientations
T16 chain: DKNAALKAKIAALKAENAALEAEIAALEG

4H2754-AA = biological target: T17, 4H2754-AA; test: two-hybrid library CCmax; settings: mean of both orientations
T17 chain: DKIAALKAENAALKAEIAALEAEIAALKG

4H2617-AA = biological target: T18, 4H2617-AA; test: two-hybrid library CCmax; settings: mean of both orientations
T18 chain: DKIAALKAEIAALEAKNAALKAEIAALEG

4H2729-AA = biological target: T19, 4H2729-AA; test: two-hybrid library CCmax; settings: mean of both orientations
T19 chain: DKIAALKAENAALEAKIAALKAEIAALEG

4H2354-AA = biological target: T20, 4H2354-AA; test: two-hybrid library CCmax; settings: mean of both orientations
T20 chain: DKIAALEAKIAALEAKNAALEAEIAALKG

4H2466-AA = biological target: T21, 4H2466-AA; test: two-hybrid library CCmax; settings: mean of both orientations
T21 chain: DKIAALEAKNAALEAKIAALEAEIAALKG

4H2393-AA = biological target: T22, 4H2393-AA; test: two-hybrid library CCmax; settings: mean of both orientations
T22 chain: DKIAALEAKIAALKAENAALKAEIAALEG

4H780-AA = biological target: T23, 4H780-AA; test: two-hybrid library CCmax; settings: mean of both orientations
T23 chain: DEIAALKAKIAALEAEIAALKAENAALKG

4H454-AA = biological target: T24, 4H454-AA; test: two-hybrid library CCmax; settings: mean of both orientations
T24 chain: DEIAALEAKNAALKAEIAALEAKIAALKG

4H881-AA = biological target: T25, 4H881-AA; test: two-hybrid library CCmax; settings: mean of both orientations
T25 chain: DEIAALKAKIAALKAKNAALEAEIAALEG

4H3427-AA = biological target: T26, 4H3427-AA; test: two-hybrid library CCmax; settings: mean of both orientations
T26 chain: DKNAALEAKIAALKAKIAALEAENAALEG

4H794-AA = biological target: T27, 4H794-AA; test: two-hybrid library CCmax; settings: mean of both orientations
T27 chain: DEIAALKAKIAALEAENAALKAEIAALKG

4H2883-AA = biological target: T28, 4H2883-AA; test: two-hybrid library CCmax; settings: mean of both orientations
T28 chain: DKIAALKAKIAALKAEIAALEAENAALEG

4H48-AA = biological target: T29, 4H48-AA; test: two-hybrid library CCmax; settings: mean of both orientations
T29 chain: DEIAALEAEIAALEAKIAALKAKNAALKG

4H2575-AA = biological target: T30, 4H2575-AA; test: two-hybrid library CCmax; settings: mean of both orientations
T30 chain: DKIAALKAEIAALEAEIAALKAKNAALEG

4H2944-AA = biological target: T31, 4H2944-AA; test: two-hybrid library CCmax; settings: mean of both orientations
T31 chain: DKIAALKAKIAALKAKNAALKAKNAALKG

4H566-AA = biological target: T32, 4H566-AA; test: two-hybrid library CCmax; settings: mean of both orientations
T32 chain: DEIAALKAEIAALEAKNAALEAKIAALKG

4H2642-AA = biological target: T33, 4H2642-AA; test: two-hybrid library CCmax; settings: mean of both orientations
T33 chain: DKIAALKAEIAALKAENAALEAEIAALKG

4H342-AA = biological target: T34, 4H342-AA; test: two-hybrid library CCmax
T34 chain: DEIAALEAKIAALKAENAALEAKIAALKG

4H3655-AA = biological target: T35, 4H3655-AA; test: two-hybrid library CCmax; settings: mean of both orientations
T35 chain: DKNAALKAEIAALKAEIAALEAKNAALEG

4H2949-AA = biological target: T36, 4H2949-AA; test: two-hybrid library CCmax; settings: mean of both orientations
T36 chain: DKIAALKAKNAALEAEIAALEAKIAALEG

4H317-AA = biological target: T37, 4H317-AA; test: two-hybrid library CCmax; settings: mean of both orientations
T37 chain: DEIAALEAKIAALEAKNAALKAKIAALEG

4H72-bN = biological target: T38, 4H72-bN; test: two-hybrid library CCNG1
T38 chain: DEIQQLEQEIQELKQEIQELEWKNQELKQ

4H687-bN = biological target: T39, 4H687-bN; test: two-hybrid library CCNG1
T39 chain: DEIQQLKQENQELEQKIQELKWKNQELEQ

4H967-bN = biological target: T40, 4H967-bN; test: two-hybrid library CCNG1
T40 chain: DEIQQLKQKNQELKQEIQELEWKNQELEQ

4H953-bN = biological target: T41, 4H953-bN; test: two-hybrid library CCNG1
T41 chain: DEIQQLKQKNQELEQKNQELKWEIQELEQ

4H883-bN = biological target: T42, 4H883-bN; test: two-hybrid library CCNG1
T42 chain: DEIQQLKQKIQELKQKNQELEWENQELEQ

4H918-bN = biological target: T43, 4H918-bN; test: two-hybrid library CCNG1
T43 chain: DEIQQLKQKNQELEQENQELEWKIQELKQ

4H4001-bN = biological target: T44, 4H4001-bN; test: two-hybrid library CCNG1
T44 chain: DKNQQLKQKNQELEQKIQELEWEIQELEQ

4H797-bN = biological target: T45, 4H797-bN; test: two-hybrid library CCNG1
T45 chain: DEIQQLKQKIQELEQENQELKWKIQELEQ

4H3843-bN = biological target: T46, 4H3843-bN; test: two-hybrid library CCNG1
T46 chain: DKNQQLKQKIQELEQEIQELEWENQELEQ

4H568-bN = biological target: T47, 4H568-bN; test: two-hybrid library CCNG1
T47 chain: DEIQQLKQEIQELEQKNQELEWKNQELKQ

4H607-bN = biological target: T48, 4H607-bN; test: two-hybrid library CCNG1
T48 chain: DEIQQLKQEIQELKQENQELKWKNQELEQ

4H462-bN = biological target: T49, 4H462-bN; test: two-hybrid library CCNG1
T49 chain: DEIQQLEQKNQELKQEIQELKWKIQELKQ

Binder: DEIAALEAENAALKAKIAALKAEIAALKG [4H234-AA]
- interaction score (4H2837-AA): -1.08
- interaction score (4H2505-AA): 1.67
- interaction score (4H3343-AA): -0.996
- interaction score (4H234-AA): 1.91
- interaction score (4H717-AA): 0.359
- interaction score (4H993-AA): 1.77
- interaction score (4H335-AA): -1.24
- interaction score (4H678-AA): 1.31
- interaction score (4H906-AA): 0.324
- interaction score (4H3627-AA): -0.624
- interaction score (4H3606-AA): -0.346
- interaction score (4H3844-AA): -1.28
- interaction score (4H429-AA): -1.25
- interaction score (4H3112-AA): -1.22
- interaction score (4H605-AA): -1.45
- interaction score (4H3921-AA): 0.388
- interaction score (4H2754-AA): 2.04
- interaction score (4H2617-AA): -1.32
- interaction score (4H2729-AA): 1.8
- interaction score (4H2354-AA): -0.425
- interaction score (4H2466-AA): -0.379
- interaction score (4H2393-AA): 0.577
- interaction score (4H780-AA): -1.42
- interaction score (4H454-AA): 1.79
- interaction score (4H881-AA): -1.05
- interaction score (4H3427-AA): -1.32
- interaction score (4H794-AA): -1.24
- interaction score (4H2883-AA): -1.27
- interaction score (4H48-AA): -0.786
- interaction score (4H2575-AA): -0.746
- interaction score (4H2944-AA): -1.71
- interaction score (4H566-AA): 0.581
- interaction score (4H2642-AA): 0.56
- interaction score (4H342-AA): 0.11
- interaction score (4H3655-AA): -0.983
- interaction score (4H2949-AA): 1.73
- interaction score (4H317-AA): -1.11

Binder: DKNQQLKQKIQELEQEIQELEWENQELEQ [4H3843-bN]
- interaction score (4H72-bN): -1.71
- interaction score (4H687-bN): -1.56
- interaction score (4H967-bN): -1.23
- interaction score (4H953-bN): -2.09
- interaction score (4H883-bN): -0.63
- interaction score (4H918-bN): -1.05
- interaction score (4H4001-bN): -1.28
- interaction score (4H797-bN): -0.609
- interaction score (4H3843-bN): -1.58
- interaction score (4H568-bN): -0.869
- interaction score (4H607-bN): -1.31
- interaction score (4H462-bN): -0.816
